Our source for the IC50, Mean IC50 (Control) and Mean IC50 (Curve) values is patent publication US20110158985A1.

Positions count from the first letter of the chain named.

Substrate in the test: F protein of RSV (Long strain) (RSV (Long strain)) (UniProt P12568)
The experiment in a line: cell-based or functional assay.

As a reminder, the IC50 is the concentration that gives 50% inhibition.

Sequence of F protein of RSV (Long strain) (RSV (Long strain)) (P12568 26-574): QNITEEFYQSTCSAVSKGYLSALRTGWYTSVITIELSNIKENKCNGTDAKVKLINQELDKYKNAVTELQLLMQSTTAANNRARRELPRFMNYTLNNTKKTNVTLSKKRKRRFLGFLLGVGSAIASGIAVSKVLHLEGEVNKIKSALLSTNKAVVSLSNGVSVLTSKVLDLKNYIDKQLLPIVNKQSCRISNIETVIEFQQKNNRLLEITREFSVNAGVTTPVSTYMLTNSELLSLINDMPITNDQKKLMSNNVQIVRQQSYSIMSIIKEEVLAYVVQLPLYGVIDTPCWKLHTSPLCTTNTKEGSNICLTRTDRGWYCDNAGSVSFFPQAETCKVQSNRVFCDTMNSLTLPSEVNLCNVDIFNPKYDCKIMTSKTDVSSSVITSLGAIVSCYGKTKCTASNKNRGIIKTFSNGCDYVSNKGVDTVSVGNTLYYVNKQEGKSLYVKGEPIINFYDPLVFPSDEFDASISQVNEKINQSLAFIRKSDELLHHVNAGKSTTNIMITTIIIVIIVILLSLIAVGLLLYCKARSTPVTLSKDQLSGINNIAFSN

B1: P12f4 Fab (Fab, V domains shown)
VH: QVTLRESGPALVKPTQTLTLTCTFSGFSLSTPGMSVGWIRQPPGKALEWLADIWWDGKKHYNPSLKDRLTISKDTSKNQVVLKVTNMDPADTATYYCARDMIFNFYFDVWGQGTTVTVSS
VL: DIQMTQSPSTLSASVGDRVTITCSLSSRVGYMHWYQQKPGKAPKLLIYDTRGLPSGVPSRFSGSGSGTEFTLTISSLQPDDFATYYCFQGSGYPFTFGGGTKVEIK
Consider B1, for which the 50% inhibitory concentration (IC50) came to 0.7 nM, the Mean IC50 (Control) is 0.0351 µg/mL and the Mean IC50 (Curve) is 0.0464 µg/mL.

B2: A1h5 Fab (Fab, V domains shown)
VH: B1 VH with P32A, F105W
VL: B1 VL with R28S, R51F, G52F, L53H, P54R
Consider B2, for which the Mean IC50 (Control) worked out at 0.176 µg/mL and the Mean IC50 (Curve) was determined as 0.194 µg/mL.
